{
  "source": "paper PMC4968546",
  "about": "“Heterologous Production and Characterization of Two Glyoxal Oxidases from Pycnoporus cinnabarinus” (Applied and Environmental Microbiology, 2016)",
  "assay_in_all_cases": "HRP/ABTS coupled H2O2 assay, A420, Lineweaver-Burk",
  "type_in_all_cases": "biochemical, Trametes cinnabarina",
  "details_in_all_cases": "50 mM sodium 2,2-dimethylsuccinate, pH 6, 30°C, O2 as co-substrate, HRP, 0.1 mM ABTS",
  "key": {"[1]": {"substrate": "O=CC(=O)O", "description": "(§1) HRP/ABTS coupled H2O2 assay, A420, Lineweaver-Burk on PciGLOX1"}, "[2]": {"substrate": "O=CC=O", "description": "as §1"}, "[3]": {"substrate": "CC(=O)C=O", "description": "as §1"}, "[4]": {"substrate": "O=CC(=O)O", "description": "(§2) HRP/ABTS coupled H2O2 assay, A420, Lineweaver-Burk on PciGLOX2", "remark": "listed apart in the source"}, "[5]": {"substrate": "O=CC=O", "description": "as §2", "remark": "listed apart in the source"}, "[6]": {"substrate": "CC(=O)C=O", "description": "as §2", "remark": "listed apart in the source"}, "[7]": {"substrate": "OCC(O)CO", "description": "as §2"}},
  "data": [
    {"protein": "PciGLOX1 (Trametes cinnabarina) (protein, secreted from Aspergillus niger D15#26; native 18-aa signal peptide … replaced by A. niger glucoamylase prepro (removed in processing); ORF 556 aa; N-terminus APSA; N-glycosylated, 70 kDa (about 60 kDa deglycosylated)) APSAPGWRFDLKAERSGIVALESIVVSPTLVLWFDRASDDPLQINNHSAWGALWNLETSTVRPLNVLTNSFCASGALLSNGSMASVGGDPRGFPGNPAINPGNQAIRIFEPCASPTGDGCTVFEDPQTLHLLEDRWYPSSIRIFDGSLLIVGGTHVNENFYNLHPANSFEFFPPKESTPRPSAFLERSLPANLFPRIFALPDGKVFMVANNQSIIYDIEANTERILPDIPNNVRVTNPIDGSAILLPLTPPDYIPEVLVCGGTSTDPLDPSLLSSQTPATTQCSRIRLDEEGIAKGWQVEHMLEPRTMPELVHIPNGQILIANGARTGFAAIKQVQDPIGNSNSDHAVLVPSIYTPDAPLGQRISNAGMPSSGIARVYHSSITLTPQGNFLIAGSNPNGNTTVGPGVKFPSEFRVQTLDPPFMFVERPKILNTPEKLAFNKTFTVPISVPSTLASPGAKVQVSLMDLGFSSHAFHSSARLVFMDATISRDRRSLTFTTPPNGRVFPPGPATVFLTIDGVTSEGAWVMMGSGNSPPTLE", "values": [
      {"measurement": "Km", "setting": "[1]", "result": 88, "unit": "µM"},
      {"measurement": "Vmax", "setting": "[1]", "result": 192, "unit": "µmol/min/mg"},
      {"measurement": "kcat", "setting": "[1]", "result": 188, "unit": "s⁻¹"},
      {"measurement": "kcat/Km", "setting": "[1]", "result": "2.14e+06", "unit": "M⁻¹ s⁻¹"},
      {"measurement": "Km", "setting": "[2]", "result": 13100, "unit": "µM"},
      {"measurement": "Vmax", "setting": "[2]", "result": 85.3, "unit": "µmol/min/mg"},
      {"measurement": "kcat", "setting": "[2]", "result": 83, "unit": "s⁻¹"},
      {"measurement": "kcat/Km", "setting": "[2]", "result": 6340, "unit": "M⁻¹ s⁻¹"},
      {"measurement": "Km", "setting": "[3]", "result": 1300, "unit": "µM"},
      {"measurement": "Vmax", "setting": "[3]", "result": 77.3, "unit": "µmol/min/mg"},
      {"measurement": "kcat", "setting": "[3]", "result": 76, "unit": "s⁻¹"},
      {"measurement": "kcat/Km", "setting": "[3]", "result": 58500, "unit": "M⁻¹ s⁻¹"}
    ]},
    {"protein": "PciGLOX2 (Trametes cinnabarina) (protein, secreted from Aspergillus niger D15#26; ORF 559 aa; N-terminus APST; N-glycosylated, 70 kDa (about 60 kDa deglycosylated)) APSTPTGWQFNLKAERSGIVALESIVVSPTLVVFFDRATNDPLQINNHSAWGALWNLETSTVRALDVLTNSFCASGALLSNGTMASIGGDPNGFPGNPAIHPGTQAIRLFEPCDSPTGEGCTLFEDPVTLHLLEKRWYPSSVRIFDGSLLIVGGMHEETPFYNTDPALSFEFFPPKESTPRPSEFLNRSLPANLFPRVFALPDGKVFMVANNQSIIYDIEANTERILPDIPNNVRVTNPIDGSAILLPLSPPDFVPEVLVCGGTQTDTIDPSLLTSQTPASSQCSRIRLDEEGIARGWEVEHMLEGRMMPELVHLPNGQVLIANGARTGFAAIASVSDPVGGSNADHAVLVPSLYTPDAPLGTRISNVGLPSSGIARVYHSSITLTPQGNFLIAGSNPNNNSSVTAGVKFPSEFRVQTLDPPFMFVERPKILSMPKKLAFGKSFTVPIAVPSTLAHPGAKVQVSLMDLGFSSHAFHSSARLVFMNAKISQDGKSLTFTTPPNGRVYPPGPATIFLTIDDVTSEGAWVMMGSGNPPPTLE", "values": [
      {"measurement": "Km", "setting": "[4]", "result": 100, "unit": "µM"},
      {"measurement": "Vmax", "setting": "[4]", "result": 17.9, "unit": "µmol/min/mg"},
      {"measurement": "kcat", "setting": "[4]", "result": 1.7, "unit": "s⁻¹"},
      {"measurement": "kcat/Km", "setting": "[4]", "result": 17000, "unit": "M⁻¹ s⁻¹"},
      {"measurement": "Km", "setting": "[5]", "result": 2200, "unit": "µM"},
      {"measurement": "Vmax", "setting": "[5]", "result": 15, "unit": "µmol/min/mg"},
      {"measurement": "kcat", "setting": "[5]", "result": 1.4, "unit": "s⁻¹"},
      {"measurement": "kcat/Km", "setting": "[5]", "result": 636, "unit": "M⁻¹ s⁻¹"},
      {"measurement": "Km", "setting": "[6]", "result": 200, "unit": "µM"},
      {"measurement": "kcat", "setting": "[6]", "result": 1.4, "unit": "s⁻¹"},
      {"measurement": "Km", "setting": "[7]", "result": 9400, "unit": "µM"},
      {"measurement": "Vmax", "setting": "[7]", "result": 6.42, "unit": "µmol/min/mg"},
      {"measurement": "kcat", "setting": "[7]", "result": 0.6, "unit": "s⁻¹"},
      {"measurement": "kcat/Km", "setting": "[7]", "result": 63, "unit": "M⁻¹ s⁻¹"}
    ]}
  ]
}
